Data published in US20150132821, “Systems and Methods for Improving Nuclease Specificity and Activity” (Georgia Tech Research Corporation, published 2015).

Key:
[1] = test system: S-03 NK-TALEN (synthetic); assay: cell_activity; settings: monomer SSA assay
[2] = test system: S-27 NK-TALEN (synthetic); assay: cell_activity; settings: monomer SSA assay
[3] = test system: S-23 NK-TALEN (synthetic); assay: cell_activity; settings: monomer SSA assay
[4] = test system: S-19 NK-TALEN (synthetic); assay: cell_activity; settings: monomer SSA assay
[5] = test system: S-43 NK-TALEN (synthetic); assay: cell_activity; settings: monomer SSA assay
[6] = test system: S-26 NK-TALEN (synthetic); assay: cell_activity; settings: monomer SSA assay
[7] = test system: S-13 NK-TALEN (synthetic); assay: cell_activity; settings: monomer SSA assay
[8] = test system: S-10 NK-TALEN (synthetic); assay: cell_activity; settings: monomer SSA assay
[9] = test system: S-06 NK-TALEN (synthetic); assay: cell_activity; settings: monomer SSA assay
[10] = test system: S-33 NK-TALEN (synthetic); assay: cell_activity; settings: monomer SSA assay
[11] = test system: S-31 NK-TALEN (synthetic); assay: cell_activity; settings: monomer SSA assay
[12] = test system: S-09 NK-TALEN (synthetic); assay: cell_activity; settings: monomer SSA assay
[13] = test system: S-17 NK-TALEN (synthetic); assay: cell_activity; settings: monomer SSA assay
[14] = test system: S-44 NK-TALEN (synthetic); assay: cell_activity; settings: monomer SSA assay
[15] = test system: S-35 NK-TALEN (synthetic); assay: cell_activity; settings: monomer SSA assay
[16] = test system: S-16 NK-TALEN (synthetic); assay: cell_activity; settings: monomer SSA assay
[17] = test system: S-36 NK-TALEN (synthetic); assay: cell_activity; settings: monomer SSA assay
[18] = test system: S-20 NK-TALEN (synthetic); assay: cell_activity; settings: monomer SSA assay
[19] = test system: S-39 NK-TALEN (synthetic); assay: cell_activity; settings: monomer SSA assay
[20] = test system: S-28 NK-TALEN (synthetic); assay: cell_activity; settings: monomer SSA assay
[21] = test system: S-42 NK-TALEN (synthetic); assay: cell_activity; settings: monomer SSA assay
[22] = test system: S-40 NK-TALEN (synthetic); assay: cell_activity; settings: monomer SSA assay
[23] = test system: S-37 NK-TALEN (synthetic); assay: cell_activity; settings: monomer SSA assay
[24] = test system: S-18 NK-TALEN (synthetic); assay: cell_activity; settings: monomer SSA assay
[25] = test system: S-32 NK-TALEN (synthetic); assay: cell_activity; settings: monomer SSA assay
[26] = test system: S-34 NK-TALEN (synthetic); assay: cell_activity; settings: monomer SSA assay
[27] = test system: S-25 NK-TALEN (synthetic); assay: cell_activity; settings: monomer SSA assay
[28] = test system: S-21 NK-TALEN (synthetic); assay: cell_activity; settings: monomer SSA assay
[29] = test system: S-11 NK-TALEN (synthetic); assay: cell_activity; settings: monomer SSA assay
[30] = test system: S-15 NK-TALEN (synthetic); assay: cell_activity; settings: monomer SSA assay
[31] = test system: S-30 NK-TALEN (synthetic); assay: cell_activity; settings: monomer SSA assay
[32] = test system: S-04 NK-TALEN (synthetic); assay: cell_activity; settings: monomer SSA assay
[33] = test system: S-24 NK-TALEN (synthetic); assay: cell_activity; settings: monomer SSA assay
[34] = test system: S-08 NK-TALEN (synthetic); assay: cell_activity; settings: monomer SSA assay
[35] = test system: S-41 NK-TALEN (synthetic); assay: cell_activity; settings: monomer SSA assay
[36] = test system: S-29 NK-TALEN (synthetic); assay: cell_activity; settings: monomer SSA assay
[37] = test system: S-38 NK-TALEN (synthetic); assay: cell_activity; settings: monomer SSA assay
[38] = test system: S-12 NK-TALEN (synthetic); assay: cell_activity; settings: monomer SSA assay
[39] = test system: S-22 NK-TALEN (synthetic); assay: cell_activity; settings: monomer SSA assay
S-05 (S5) NK-TALEN = biological target: T1, S-05 (S5) NK-TALEN (synthetic); assay: cell_activity; monomer SSA assay; settings: tags: 3xFLAG, NLS, FokI
T1 chain: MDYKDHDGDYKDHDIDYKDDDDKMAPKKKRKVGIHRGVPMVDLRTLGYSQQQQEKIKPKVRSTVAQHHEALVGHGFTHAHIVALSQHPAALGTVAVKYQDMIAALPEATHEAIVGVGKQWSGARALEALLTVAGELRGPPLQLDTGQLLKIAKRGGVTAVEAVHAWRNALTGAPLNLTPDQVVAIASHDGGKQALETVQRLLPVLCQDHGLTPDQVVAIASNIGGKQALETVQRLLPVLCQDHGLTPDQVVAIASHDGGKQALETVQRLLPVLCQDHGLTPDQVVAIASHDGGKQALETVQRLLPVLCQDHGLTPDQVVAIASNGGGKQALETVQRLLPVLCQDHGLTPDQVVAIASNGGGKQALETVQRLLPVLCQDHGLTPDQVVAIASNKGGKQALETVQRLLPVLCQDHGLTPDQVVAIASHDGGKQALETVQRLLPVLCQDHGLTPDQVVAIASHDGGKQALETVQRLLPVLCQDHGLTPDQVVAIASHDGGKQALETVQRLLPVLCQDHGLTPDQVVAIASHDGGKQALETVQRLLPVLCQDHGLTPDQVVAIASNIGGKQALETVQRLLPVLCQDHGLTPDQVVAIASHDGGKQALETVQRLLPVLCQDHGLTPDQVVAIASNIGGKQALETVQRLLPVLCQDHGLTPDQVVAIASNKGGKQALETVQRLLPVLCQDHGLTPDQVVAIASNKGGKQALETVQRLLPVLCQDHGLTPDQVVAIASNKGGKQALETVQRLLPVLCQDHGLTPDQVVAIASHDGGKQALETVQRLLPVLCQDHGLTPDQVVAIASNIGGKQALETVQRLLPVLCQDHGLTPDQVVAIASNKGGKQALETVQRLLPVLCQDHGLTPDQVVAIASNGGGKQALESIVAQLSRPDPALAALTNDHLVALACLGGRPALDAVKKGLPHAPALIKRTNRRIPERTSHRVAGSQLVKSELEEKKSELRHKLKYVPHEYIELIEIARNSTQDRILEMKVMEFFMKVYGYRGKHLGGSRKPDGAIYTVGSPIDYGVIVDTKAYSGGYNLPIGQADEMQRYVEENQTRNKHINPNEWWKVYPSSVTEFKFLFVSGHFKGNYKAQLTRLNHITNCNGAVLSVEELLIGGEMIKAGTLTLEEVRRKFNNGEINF
Description: HEK293T cells (ATCC) were cultured in Dulbecco's Modified Eagle Medium (Sigma) supplemented with 10% FBS and 2 mM L-Glutamine. Cells were seeded 80,000 per well of a 24-well plate. After 4 h, cells were transfected with 200 ng of the TALEN plasmid (or 100 ng of each TALEN for hetero-dimeric pairs) and 10 ng of the corresponding SSA reporter plasmid using calcium phosphate transfection. Three control transfections were included: 1) 200 ng of an empty TALEN backbone and 10 ng of an SSA reporter plasmid, 2) 200 ng of an empty TALEN backbone and 10 ng of a pEGFP plasmid, and 3) 100 ng of each GFP-ZFN and 10 ng of an SSA reporter plasmid. Cells were harvested 48 h after transfection. The percentages of pEGFP-transfected samples expressing GFP were determined using an Accuri C6 flow cytometer, as an indication of transfection efficiency. Genomic DNA was isolated using QuickExtract DNA extraction solution (Epicentre) as described20. Sample were PCR amplified for 35 cycles (95° C., 30 s; 60° C., 30 s; 72° C., 60 s) in a 50 μl reaction that contains 2 μl of the extracted DNA, 2.5 μl of each 10 μM target region amplification primer (SSA-Cell-F4, 5′-[…] (SEQ ID NO: 183); SSA-Cell-R4, 5′-[…] (SEQ ID NO: 184)), and 25 μl of GoTaq green master mix (Promega). PCR reactions were then separated on 2% agarose gels and the percentages of SSA-repaired products were quantified using ImageJ.

## CAAACAGACACCATGGTGCACCT (double strand) [S-03 half-site]
[1]
  activity: 4.9 % SSA

## GCCTATCAGAAACCCAAGAGTCTTCTCTGT (double strand) [S-27 half-site]
[2]
  activity: 3.5 % SSA

## AGACCACCAGCAGCCT (double strand) [S-23 half-site]
[3]
  activity: 11.6 % SSA

## CTGATAGGCACTGACTCTCTCTGCCT (double strand) [S-19 half-site]
[4]
  activity: 17.2 % SSA

## GCTTACATTTGCTTCTGACACAACTGT (double strand) [S-43 half-site]
[5]
  activity: 4.1 % SSA

## ATCAGAAACCCAAGAGTCTTCTCTGT (double strand) [S-26 half-site]
[6]
  activity: 11.7 % SSA

## CTTGGGTTTCTGATAGGCACTGACTCTCT (double strand) [S-13 half-site]
[7]
  activity: 13 % SSA

## GCTTACATTTGCTTCTGACACAACTGTGTT (double strand) [S-10 half-site]
[8]
  activity: 8.4 % SSA

## CACCTTGCCCCACAGGGCAGTAA (double strand) [S-06 half-site]
[9]
  activity: 5.3 % SSA

## GCCTATCAGAAACCCAAGAGTCTT (double strand) [S-33 half-site]
[10]
  activity: 4.9 % SSA

## GCCTATCAGAAACCCAAGAGTCTTCT (double strand) [S-31 half-site]
[11]
  activity: 9.7 % SSA

## GCCCCACAGGGCAGTAACGGCAGA (double strand) [S-09 half-site]
[12]
  activity: 6.2 % SSA

## CTGATAGGCACTGACTCTCT (double strand) [S-17 half-site]
[13]
  activity: 29.2 % SSA

## GCTTACATTTGCTTCTGACACAACTGTGT (double strand) [S-44 half-site]
[14]
  activity: 3.2 % SSA

## GCCTATCAGAAACCCAAGAGTCT (double strand) [S-35 half-site]
[15]
  activity: 8.1 % SSA

## CTGATAGGCACTGACTCT (double strand) [S-16 half-site]
[16]
  activity: 30.9 % SSA

## ATCAGAAACCCAAGAGT (double strand) [S-36 half-site]
[17]
  activity: 7.3 % SSA

## CTGATAGGCACTGACTCTCTCTGCCTAT (double strand) [S-20 half-site]
[18]
  activity: 16.6 % SSA

## GGGTTTCTGATAGGCACTGACTCTCTCT (double strand) [S-39 half-site]
[19]
  activity: 5 % SSA

## ATCAGAAACCCAAGAGTCTTCTCT (double strand) [S-28 half-site]
[20]
  activity: 15.3 % SSA

## GCTTACATTTGCTTCTGACACAACT (double strand) [S-42 half-site]
[21]
  activity: 4.3 % SSA

## ATTGCTTACATTTGCTTCTGACACAACT (double strand) [S-40 half-site]
[22]
  activity: 2.5 % SSA

## GCCTATCAGAAACCCAAGAGT (double strand) [S-37 half-site]
[23]
  activity: 4.8 % SSA

## CTGATAGGCACTGACTCTCTCT (double strand) [S-18 half-site]
[24]
  activity: 26.2 % SSA

## ATCAGAAACCCAAGAGTCTT (double strand) [S-32 half-site]
[25]
  activity: 10.5 % SSA

## ATCAGAAACCCAAGAGTCT (double strand) [S-34 half-site]
[26]
  activity: 14.8 % SSA

## CTCCACAGGAGTCAGGTGCACCAT (double strand) [S-25 half-site]
[27]
  activity: 11.1 % SSA

## CTGATAGGCACTGACTCTCTCTGCCTATT (double strand) [S-21 half-site]
[28]
  activity: 21.8 % SSA

## ACAAGACAGGTTTAAGGAGACCAAT (double strand) [S-11 half-site]
[29]
  activity: 1.5 % SSA

## CCTGTGGAGAAGTCTGCCGT (double strand) [S-15 half-site]
[30]
  activity: 3 % SSA

## ATCAGAAACCCAAGAGTCTTCT (double strand) [S-30 half-site]
[31]
  activity: 17.9 % SSA

## CAAACAGACACCATGGTGCACCTGA (double strand) [S-04 half-site]
[32]
  activity: 2.5 % SSA

## CCAAGGGTAGACCACCAGCAGCCT (double strand) [S-24 half-site]
[33]
  activity: 1.3 % SSA

## CACCTTGCCCCACAGGGCAGTA (double strand) [S-08 half-site]
[34]
  activity: 1.9 % SSA

## ATTGCTTACATTTGCTTCTGACACAACTGT (double strand) [S-41 half-site]
[35]
  activity: 3.1 % SSA

## GCCTATCAGAAACCCAAGAGTCTTCTCT (double strand) [S-29 half-site]
[36]
  activity: 5.3 % SSA

## CTATTGCTTACATTTGCTTCTGACACAACT (double strand) [S-38 half-site]
[37]
  activity: 3.7 % SSA

## TGCCCCACAGGGCAGT (double strand) [S-12 half-site]
[38]
  activity: 11 % SSA

## CCACGTTCACCTTGCCCCACAGGGCAGT (double strand) [S-22 half-site]
[39]
  activity: 4.5 % SSA

B1: S-05 half-site (dsDNA)
DNA 1: CACCTTGCCCCACAGGGCAGT
DNA 2: ACTGCCCTGTGGGGCAAGGTG
S-05 (S5) NK-TALEN
  activity: 6.1 % SSA
